Test results as given in paper PMC3025356, “Mechanism of the Ca^2+-Dependent Interaction between S100A4 and Tail Fragments of Nonmuscle Myosin Heavy Chain IIA” (Journal of Molecular Biology, 2011).

How the values were obtained:
M200 filamentous bundles = test: Electron microscopy of myosin IIA tail fragments; set-up: species or system human
Protocol: Fig. 8 Characterisation of myosin IIA coiled-coil tail fragments. Metal-shadowed electron micrographs of (a) M200 and (b) M111 deposited from 0.5 M ammonium acetate. Scale bar represents 50 nm. (c and d) Electron micrographs of a negatively stained M200 tail fragment. Fields of M200 (c) in the absence and (d) in the presence of a 2-fold molar excess of S100A4, respectively. Arrows point to individual strands emerging from images of filamentous bundles. The samples were prepared in 0.1 M sodium acetate buffer, where M200 formed large filamentous aggregates but were solubilised in the presence of S100A4. Scale bar represents 200 nm (see Materials and Methods for details).
For negative staining, the stock solution of the M200 tail fragment was diluted with a solution consisting of 0.1 M Na-acetate, 3 mM MgCl2, 0.1 mM CaCl2, 10 mM imidazole, and 5 mM NaH2PO4 (pH 7.0), with or without 14 μM S100A4, to give a final concentration of 7 μM M200. Following dilution, 5 μl of the mixture was applied to a grid with a thin carbon film supported by a holey carbon film, and the grid was negatively stained using 1% uranyl acetate. For metal shadowing, the stock solutions of the M200 and M111 tail fragments were diluted with 0.5 M ammonium acetate solution to give a final concentration of 5 μM protein. This was mixed with an equal volume of glycerol, and the resulting mixture was sprayed onto freshly cleaved mica then rotary shadowed with platinum at an angle of 6°.[46] Grids were examined in a Philips CM120 electron microscope (FEI, Hillsboro, OR) operated at 80 kV. Images were recorded on a 2000 × 2000 F224HD slow-scan CCD camera (TVIPS, Gauting, Germany) at a magnification of 65,000× (0.37 nm pixel^− 1). The lengths of nonoverlapping well-shadowed molecules were measured as described by Burgess et al.[47]

S100A4 = target: T1, S100A4 (Homo sapiens, UniProt P26447); test: Ca^2+ dependence of M200 turbidity in the presence of S100A4; format: biochemical; settings: 5 μM M200 + S100A4; 100 mM NaCl, 20 mM Hepes, 1 mM Mg^2+, 1 mM EGTA, 1 μM Fura-2; read-out: apparent Kd for Ca^2+ binding
T1 construct: We used full-length S100A4 for this analysis; made in house; host or cells: Escherichia coli BL21(DE3)
Source text: The decrease in fluorescence, […]
that F-M16N binding was slightly faster.
The equilibrium constant (K5) for dissociation of the M200.S100A4.Ca2+ complex The value of K5 (scheme 2) was estimated from two independent experiments. From the competition […]
inhibition in the amplitude of the turbidity change arising from 5 M M200 at saturating Ca2+ concentrations. Under these conditions the free S100A4.Ca2+ concentration is ~ 0.06 M based on K2 = 3 […]
concentration will remain close to its critical concentration (K4 = 0.1 M), so that K5 = 0.1 * 0.06 / 5 ≈ 0.001 M, which represents the binding of S100A4.Ca2+ to free M200.
A second estimate was calculated from the apparent Ca2+ binding constant observed in the turbidity assay
(Fig. S6c). 5 M M200 in the presence of S100A4 and 1 mM EGTA gave a high turbidity in 0.1 M NaCl buffer, as S100A4 binds weakly under these conditions. Addition of aliquots of Ca2+ caused filament dissociation as the free Ca2+ rose, to give an apparent binding constant for Ca2+ of 0.14 M (Fig. S6c). At […]
contained 100 mM NaCl, 20 mM Hepes, 1 mM Mg2+, 1 mM EGTA and 1 µM Fura-2. Ca2+ was added in l aliquots and the turbidity measured (using the 10 mm path length). The free Ca2+ was calculated from the ratio of the Fura-2 340 nm to 362 nm excitation peaks, assuming a Kd of 0.224 M 1, measured between each addition of Ca2+ (using the 2 mm path length for excitation).

T1 sequence (P26447 whole entry): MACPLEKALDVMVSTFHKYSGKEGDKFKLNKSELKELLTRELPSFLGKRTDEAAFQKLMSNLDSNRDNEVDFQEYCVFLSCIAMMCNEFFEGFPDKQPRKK

B1: M200: His-tagged human NM-MHC IIA residues Q1761-E1960, V1913I substitution (protein, UniProt P35579 1761-1960, looked up, variant V1913I)
chain: QINTDLNLERSHAQKNENARQQLERQNKELKVKLQEMEGTVKSKYKASITALEAKIAQLEEQLDNETKERQAACKQVRRTEKKLKDVLLQVDDERRNAEQYKDQADKASTRLKQLKRQLEEAEEEAQRANASRRKLQRELEDATETADAMNREISSLKNKLRRGDLPFVVPRRMARKGAGDGSDEEVDGKADGAEAKPAE
modifications: His tag
notes: His-tagged human NM-MHC IIA residues Q1761-E1960, V1913I substitution
Q: What does the source list for B1?
A: filamentous bundle width (M200 filamentous bundles; 0.1 M Na-acetate): ~100 nm; individual strand width (M200 filamentous bundles; 0.1 M Na-acetate): about 10 nm; mean length of coiled coil (M200 filamentous bundles; metal shadowed, 0.5 M ammonium acetate, mean ± SD, n = 132): 26.4 ± 2.03 nm; Kd (S100A4): 140 nM
